This passage reports Kd results from the Immune Epitope Database (IEDB).

One test has as its target HLA-B*15:03. Put plainly: IEDB peptide-MHC binding, purified MHC/competitive/radioactivity; filed as Kd, often an IC50 or EC50 that approximates it; ≥ and ≤ were set here for values at or beyond the usual limits of such assays.
For a further test, the target named is HLA-A*32:01. The test is described as above.
Another test concerns the target HLA-A*30:01. The test is described as above.
For test [1], the target named is HLA-B*08:01. Described as above.
For test [2], the target named is HLA-B*15:01. The test is described as above.
For the next test, the target named is HLA-A*24:03. Put plainly: IEDB peptide-MHC binding, purified MHC/competitive/fluorescence; filed as Kd, often an IC50 or EC50 that approximates it; ≥ and ≤ were set here for values at or beyond the usual limits of such assays. As to conditions: source organism: Escherichia coli str. K-12 substr. MG1655.
The next test deals with HLA-B*51:01. Described as above.
The target in another test is HLA-B*27:03. The test is described as above.
The target of another test is HLA-B*15:17. The test is described as above.
The target in a further test is HLA-B*39:01. The test is described as above.
A further test concerns the target HLA-A*26:01. The test is described as above.
Another test addresses HLA-A*02:01. Put plainly: IEDB peptide-MHC binding, purified MHC/direct/fluorescence; filed as Kd, often an IC50 or EC50 that approximates it; ≥ and ≤ were set here for values at or beyond the usual limits of such assays. The following applies: source organism: Orthohantavirus seoulense.
The target in another test is HLA-B*18:01. The description is as above. As to conditions: source organism: Orthohantavirus seoulense.
A further test deals with HLA-A*68:02. The test is described as above.
Test [3] deals with HLA-A*69:01. The description is as above. As to conditions: source organism: Orthohantavirus seoulense.
In the next test the target is HLA-B*40:01. The description is as above. The following applies: source organism: Orthohantavirus seoulense.
In test [4] the target is HLA-A*31:01. Described as above. The following applies: source organism: Orthohantavirus seoulense.
For the next test, the target named is HLA-A*01:01. The test is described as above.
The next test addresses HLA-B*48:01. The test is described as above. The following applies: source organism: Orthohantavirus seoulense.
In test [5] the target is HLA-B*57:01. The test is described as above. As to conditions: source organism: Orthohantavirus seoulense.
The next test has as its target HLA-B*44:02. The description is as above. As to conditions: source organism: Orthohantavirus seoulense.
For test [6], the target named is HLA-B*46:01. The description is as above. As to conditions: source organism: Orthohantavirus seoulense.
The target in test [7] is HLA-A*03:01. Described as above. The following applies: source organism: Orthohantavirus seoulense.
Test [8] addresses HLA-A*11:01. The description is as above. As to conditions: source organism: Orthohantavirus seoulense.
In a further test the target is HLA-B*07:02. The description is as above. As to conditions: source organism: Orthohantavirus seoulense.
Test [9] concerns the target HLA-B*08:01. The description is as above. As to conditions: source organism: Orthohantavirus seoulense.
The target of a further test is HLA-B*58:01. The description is as above. As to conditions: source organism: Orthohantavirus seoulense.
For the next test, the target named is HLA-A*02:12. The test is described as above. As to conditions: source organism: Limestone Canyon virus.
A further test addresses HLA-B*27:05. Described as above. As to conditions: source organism: Orthohantavirus seoulense.
Test [10] deals with HLA-B*15:01. The description is as above. As to conditions: source organism: Orthohantavirus seoulense.
The target in the next test is HLA-A*68:01. Put plainly: IEDB peptide-MHC binding, purified MHC/competitive/radioactivity; filed as Kd, often an IC50 or EC50 that approximates it; ≥ and ≤ were set here for values at or beyond the usual limits of such assays. As to conditions: source organism: Vaccinia virus WR.
The target in test [11] is HLA-A*31:01. The description is as above. The following applies: source organism: Vaccinia virus WR.
Test [12] deals with HLA-A*03:01. The description is as above. The following applies: source organism: Vaccinia virus WR.
Test [13] concerns the target HLA-A*11:01. The description is as above. The following applies: source organism: Vaccinia virus WR.
Another test deals with HLA-A*33:01. The test is described as above. The following applies: source organism: Vaccinia virus WR.
The target in test [14] is HLA-A*69:01. Put plainly: IEDB peptide-MHC binding, purified MHC/competitive/fluorescence; filed as Kd, often an IC50 or EC50 that approximates it; ≥ and ≤ were set here for values at or beyond the usual limits of such assays. The following applies: source organism: Orthohantavirus tulaense.
The target in test [15] is HLA-B*57:01. The test is described as above. The following applies: source organism: Orthohantavirus tulaense.
The target of test [16] is HLA-B*46:01. The description is as above. The following applies: source organism: Orthohantavirus tulaense.
The target of test [17] is HLA-A*03:01. Described as above. As to conditions: source organism: Orthohantavirus tulaense.
Where [18] appears, read: source organism: Vaccinia virus Copenhagen.
Setting [19] is: source organism: Vaccinia virus WR.
[20] abbreviates: source organism: Orthohantavirus seoulense.
[21] abbreviates: source organism: Orthohantavirus tulaense.

With KTMAVTYEL, the Kd (in general, the concentration at which binding is half-saturated) in the test with HLA-B*15:03 (setting [18]) was found to be 34.5 nM; in the test with HLA-A*32:01 (setting [18]), 0.000578 µM; in the test with HLA-A*30:01 (setting [18]) it was 10.9 µM; with HLA-B*08:01 [1] (setting [18]), 18.7 nM; with HLA-B*15:01 [2] (setting [18]) it was 5.51 nM.

Take FSIYSVSCF: the Kd in the test with HLA-B*15:03 (setting [18]) was determined as 7.64 nM; with HLA-B*15:01 [2] (setting [18]), 3.1 nM.

In the case of RQYMFYKIF, the equilibrium dissociation constant (Kd) with HLA-B*15:03 (setting [18]) was 0.0698 nM; with HLA-A*32:01 (setting [18]), 0.0193 µM.

As to AWQRTLKWF, the dissociation constant (Kd) with HLA-A*24:03 was 110 nM.

Turning to FSNFSTSHI, the Kd with HLA-B*15:03 (setting [19]) was found to be 510 nM; in the test with HLA-A*32:01 (setting [19]), 18.4 µM; with HLA-A*30:01 (setting [19]), 7.5 µM; in the test with HLA-B*08:01 [1] (setting [19]), 3110 nM; with HLA-B*15:01 [2] (setting [19]) it was 110 nM.

Take ISWMMKLGI: the Kd with HLA-B*15:03 (setting [19]) is 404 nM; with HLA-A*32:01 (setting [19]) it was 0.0421 µM; with HLA-A*30:01 (setting [19]), 6.58 µM; with HLA-B*08:01 [1] (setting [19]), 4840 nM; in the test with HLA-B*15:01 [2] (setting [19]), 546 nM.

Regarding KPKHLYVSM, the Kd with HLA-B*51:01 (setting [20]), with HLA-B*27:03 (setting [20]), in the test with HLA-B*15:17 (setting [20]), in the test with HLA-B*39:01 (setting [20]), with HLA-A*26:01 (setting [20]) and in the test with HLA-A*02:01 was at least 20 µM in each case. The equilibrium dissociation constant (Kd) in the test with HLA-B*18:01 was at least 20 µM; with HLA-A*68:02 (source organism: Limestone Canyon virus), at least 20 µM; in the test with HLA-A*69:01 [3], at least 20 µM; with HLA-B*40:01 it was at least 20 µM; in the test with HLA-A*31:01 [4], at least 20 µM; with HLA-A*01:01 (setting [20]), at least 20000 nM. For the same sequence, the Kd in the test with HLA-B*48:01, with HLA-B*57:01 [5], with HLA-B*44:02, with HLA-B*46:01 [6], with HLA-A*03:01 [7] and with HLA-A*11:01 [8] was at least 20 µM each time. The dissociation constant (Kd) with HLA-B*07:02 is 84.4 nM; with HLA-B*08:01 [9], 254 nM; with HLA-B*58:01 it was at least 20 µM; with HLA-A*02:12, at least 20 µM; in the test with HLA-B*27:05, at least 20 µM; with HLA-B*15:01 [10], at least 20 µM.

As for LMYILGTYG, the Kd is 125 nM with HLA-B*15:03 (setting [19]); at least 23.3 µM with HLA-A*32:01 (setting [19]); 3.75 µM with HLA-A*30:01 (setting [19]); 951 nM with HLA-B*08:01 [1] (setting [19]); 62 nM with HLA-B*15:01 [2] (setting [19]).

Turning to LSTTRFQSM, the Kd was 2500 nM with HLA-B*15:03 (setting [19]); 9.77 µM in the test with HLA-A*32:01 (setting [19]); 1.08 µM with HLA-A*30:01 (setting [19]); 3970 nM with HLA-B*08:01 [1] (setting [19]); 5820 nM in the test with HLA-B*15:01 [2] (setting [19]).

As to KAFNHASVK, the equilibrium dissociation constant (Kd) with HLA-A*68:01 was found to be 17.6 nM; with HLA-B*15:03 (setting [19]) it was 282 nM; with HLA-A*32:01 (setting [19]) it was 3.64 µM; with HLA-A*30:01 (setting [19]) it was 0.0347 µM; with HLA-A*31:01 [11] it was 29.7 nM; in the test with HLA-A*03:01 [12], 6.13 nM. The Kd with HLA-A*11:01 [13] is 9.31 nM; with HLA-B*08:01 [1] (setting [19]), 751 nM; with HLA-A*33:01, at least 47.7 µM; in the test with HLA-B*15:01 [2] (setting [19]), 462 nM.

Regarding FMSRKLHRY, the Kd with HLA-A*69:01 [14], with HLA-B*51:01 (setting [21]), in the test with HLA-B*27:03 (setting [21]), in the test with HLA-B*15:17 (setting [21]), with HLA-B*57:01 [15] and in the test with HLA-B*46:01 [16] was at least 20 µM throughout. In addition, the dissociation constant Kd in the test with HLA-A*03:01 [17] is 8 µM; with HLA-B*39:01 (setting [21]), at least 20 µM; with HLA-A*26:01 (setting [21]), at least 20 µM; with HLA-A*68:02 (setting [21]) it was at least 20 µM; with HLA-A*01:01 (source organism: Orthohantavirus negraense) it was 9.5 nM.
